In patent US6383734:

Tests used:
[1] = biological target: recombinant His-tagged mouse PAK3 from Sf9 cells (UniProt Q61036)
[2] = biological target: myc-tagged wild type Raf-1 (UniProt P04049)
[3] = biological target: Raf-CX (Raf modified to translocate to the plasma membrane independently of Ras) (UniProt P04049); test: cell-based or functional assay
[4] = biological target: myc-tagged wild type Raf-1 (UniProt P04049); test: cell-based or functional assay
[5] = biological target: Raf-CR3 (wild type), recombinant Raf-1 catalytic fragment, calmodulin binding protein fusion (UniProt P04049)
Raf-CR3[D338E339] = Raf-CR3[D338E339] (UniProt P04049)

Chain of p37, purified 37-kD Raf-1 serine 338/339 protein kinase from rat spleen (truncated PAK3) (chain, as listed by the source): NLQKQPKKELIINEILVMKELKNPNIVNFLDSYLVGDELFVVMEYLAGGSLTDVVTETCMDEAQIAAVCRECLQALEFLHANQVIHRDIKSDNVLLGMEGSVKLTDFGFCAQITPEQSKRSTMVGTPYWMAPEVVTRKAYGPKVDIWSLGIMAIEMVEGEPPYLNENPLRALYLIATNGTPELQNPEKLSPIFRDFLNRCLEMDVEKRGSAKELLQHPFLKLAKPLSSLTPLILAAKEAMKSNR
Chain of recombinant His-tagged mouse PAK3 from Sf9 cells (Q61036 other isoform, or with tags, fused parts or gaps): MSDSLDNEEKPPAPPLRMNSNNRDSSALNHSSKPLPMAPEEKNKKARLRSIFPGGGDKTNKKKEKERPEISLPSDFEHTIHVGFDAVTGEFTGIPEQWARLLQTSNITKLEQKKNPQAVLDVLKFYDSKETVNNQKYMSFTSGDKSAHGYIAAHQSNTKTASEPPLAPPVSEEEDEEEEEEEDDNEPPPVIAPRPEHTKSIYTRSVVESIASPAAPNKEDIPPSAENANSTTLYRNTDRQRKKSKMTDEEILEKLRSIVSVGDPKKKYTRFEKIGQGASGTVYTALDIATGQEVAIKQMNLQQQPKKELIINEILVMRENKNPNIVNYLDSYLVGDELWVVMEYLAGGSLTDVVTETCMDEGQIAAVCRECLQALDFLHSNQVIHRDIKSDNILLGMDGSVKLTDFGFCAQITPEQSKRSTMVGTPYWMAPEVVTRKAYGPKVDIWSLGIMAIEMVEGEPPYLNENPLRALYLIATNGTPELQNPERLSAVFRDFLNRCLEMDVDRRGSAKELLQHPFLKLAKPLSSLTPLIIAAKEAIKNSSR

Substance: GST-Cdc42 charged with GTPγS
- stimulation of the Raf-1 peptide and Raf-CR3 serine 338/339 kinase activity of PAK3 [1]: stimulated up to six-fold by co-incubation with GST-Rac-GTPγS or GST-Cdc42-GTPγS

Substance: constitutively active HA-tagged PAK3[S91,A93,A95]
- increase in the amount of phosphorylated serine 338 (immunoprecipitation with phosphoserine 338-specific antibody, 9E10 blot) [2]: 2.5 and 6.5-fold increases in the amount of phosphorylated serine 338

Substance: dominant negative HA-tagged PAK3[R278] (enzyme)
- reduction of the intrinsic Raf kinase activity in COS-7 cells [3]: > 70%
- reduction of the Ras[V12]-inducible activation of Raf-1 in COS-7 cells [4]: > 50%

Substance: p37, purified 37-kD Raf-1 serine 338/339 protein kinase from rat spleen (truncated PAK3)
- phosphorylation of Raf-CR3 (32P, SDS-PAGE, autoradiography) [5]: The purified kinase phosphorylated the wild type Raf-CR3
- share of incorporated 32P in the serine 338/339 tryptic peptides [5]: Over 95% of the 32P incorporated within the phosphorylated Raf-CR3 was associated with the serine 338/339 tryptic peptides
- phosphorylation of Raf-CR3 (32P, SDS-PAGE, autoradiography) (Raf-CR3[D338E339]): failed to significantly phosphorylate the Raf-CR3[D338E339] mutant
- specific activity (Raf-1 peptide phosphorylation) (Raf-1 (331-345) peptide): extremely high specific activity (19,500 pmol/min/mg)
